Laboratory results reported in the supplement of paper PMC12764529.
± gives the half width of the 95% confidence interval.

Tests used:
[1] = folding stability dG unfold from trypsin proteolysis; higher = more stable
In short: (§1)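 Unfolding free energy was derived, per protease or combined, against a sequence-predicted unfolded-state K50 and a shared folded-state K50, starting from K50 inferred by Bayesian fitting of sequencing counts. Digestion with trypsin and chymotrypsin was carried out on designed mini-proteins under 80 residues without cysteine in a PA-tagged cDNA display construct. Only designs with AlphaFold2 dimer inter-PAE above 15 were kept.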

[2] = folding stability dG unfold from chymotrypsin proteolysis; higher = more stable
In short: as §1

[3] = folding stability dG unfold (combined trypsin and chymotrypsin); higher = more stable
In short: as §1

Row | Sequence | folding stability dG unfold [1] [kcal/mol] | folding stability dG unfold [2] [kcal/mol] | folding stability dG unfold [3] [kcal/mol]
1 | SAGGSAGGSAGMTITLPNGAEITSIEINEDGTITITVRVNGKTLTLTITVTLPPPPPEEPSAGGSAGGSAGG [r17_421_TrROS_Hall] | 3.67 ± 0.17 | 3.54 ± 0.16 | 3.69 ± 0.18
2 | SAGGSAGGSAGGGKKVKVIIAADKPEEAEKAIEKLEKETDLPLEDVIVIPREEAEKLGLASAGGSAGGSAGG [r7_84_TrMRF] | -1.27 ± 0.82 | -0.574 ± 0.14 | -0.553 ± 0.47
3 | SAGGSAGGSMTIVIPKKTLEKMKPETIKKLLELAKELNTTITMNENAITIPVGKGTEEALKALSAGGSAGGS [r12_945_TrMRF] | 1.5 ± 0.07 | 1.05 ± 0.025 | 1.28 ± 0.073
4 | SKIEIEVFPEEGFIRIRLEAENLTEEELKDAIIEFIKSLGFPAEVEILRIEPSGNTIRIEALVKVEPGYLSA [r9_347_TrMRF] | 3.27 ± 0.12 | 2.673 ± 0.022 | 2.97 ± 0.093
5 | SAGGSSVTTTVSEETLPDGLRLLTTTTTTTTVPGKPDLRITTVTTTALDPVTGETTAVGTSTTVVAPSAGGS [r8_65_JUSTAS] | 0.311 ± 0.038 | 0.796 ± 0.027 | 0.63 ± 0.086
6 | SAGGSAGGSNEKKYIYRAKITIPGKEGEKPFEIEFESEEEVIELVEKLFPKENIKLEVEKFELDSAGGSAGG [r6_113_TrMRF] | 1.83 ± 0.1 | 2.51 ± 0.12 | 2.33 ± 0.15
7 | SAMRILIEFDSPEEAEEALRKLVEEAGLVLEEIKVEIAPAKVTTTTPDGKKVTKTKYFALAEIKLSKKESAG [r14_773_TrMRF] | 1.47 ± 0.067 | 2.19 ± 0.086 | 2.12 ± 0.19
8 | SAGKKVKINIKLPEGAKVTKIEFDKKTKTIKITIYDKNGKKVLEMTFVYKDKNGKYKIVKKITVYLKKPSAG [r5_434_TrROS_Hall] | 2.97 ± 0.27 | 4.19 ± 0.068 | 4.09 ± 0.27
9 | EEWYIIQIKIEYWGPNGKEREIDIMVLIPPEQMTPDQLKQVKEIAREIAENLQENGYNIEINVEIIPLDDMS [r1_221_TrROS] | 3.07 ± 0.26 | 3.9 ± 0.23 | > 6
10 | SAGTIRLNGLELEVDIEWWPEHGYITINVTITWPNGRTMMMQIIIKVKPVKPPPPPPPKYDPDNGKPKASAG [r5_816_TrROS] | 2.97 ± 0.1 | 4.38 ± 0.25 | 3.68 ± 0.34
11 | SAGGSAMLRVFEKEHPGPFSITVLAGPGLSEEEIEELAEKLAEKKIEIEKKKIELEKKGKKPIFKKSAGGSA [r15_704_JUSTAS] | 0.327 ± 0.21 | 0.235 ± 0.43 | 0.0936 ± 0.43
12 | SAGGSAGGSAGGMLFHFEIKDPNSDKEYEVLVEKPPSGKVLVTILKDNKEEVKVLPLELFSAGGSAGGSAGG [r11_952_JUSTAS] | 0.109 ± 0.17 | -0.393 ± 0.42 | -0.29 ± 0.31
13 | SAGGSAGGSAGGGSMESVVLNVPIYEKTPDGSWRLVKELPILVPVDASPEVVEKKRKELSAGGSAGGSAGGS [r10_470_JUSTAS] | -0.41 ± 0.13 | -0.822 ± 0.68 | -0.481 ± 0.17
14 | SAGGSAGGSAGLPEEIADFVKEILEKAFPNVKVLEVEVEELPEGFYVVRARFEDGSEVEFPISAGGSAGGSA [r18_423_TrMRF] | 4.29 ± 0.091 | 3.47 ± 0.059 | 3.88 ± 0.069
15 | SAGGSAGGSAGGPTLELEITLPDGFKLRVTFDPEKGLRVELVEPVPAPPPKVEYRSLEDLSAGGSAGGSAGG [r11_188_TrROS_Hall] | 0.552 ± 0.13 | 1.62 ± 0.11 | 1.37 ± 0.18
16 | SAGGSAGGKLSIPIHIPGLTPEEARKIVKYFAAAGIPPDNVTIEVQPVPPVPPMTPEEMEKHNKSAGGSAGG [r6_246_TrROS] | -0.288 ± 0.24 | 0.988 ± 0.13 | 0.614 ± 0.2
17 | SAGGSAGGSAGPNAVYLGELEVTTRNPDGDRPLRVRVELYLVPTPEGLRLLARVLEVEELSAGGSAGGSAGG [r11_113_TrMRF] | 2.81 ± 0.052 | 3.644 ± 0.021 | 3.4 ± 0.04
18 | SAGGSAGGSAGMTITKTEDGTYRLTLTVTETLPNGSTVTRTVTLTVPLEDAEEILAALPPSAGGSAGGSAGG [r11_505_TrROS_Hall] | 2.52 ± 0.11 | 2.87 ± 0.032 | 2.72 ± 0.089
19 | SAGGMKVTITVTDPEAFRAAVEALPEVPPEQVSTSPLPGNSYTATFPSEKAVELLKAAGVPITEIAASAGGS [r16_381_JUSTAS] | 0.377 ± 0.022 | 0.63 ± 0.074 | 0.568 ± 0.05
20 | SAKKTITLTITNEDGSTFTITITDNKITITNKDNGLVAEAEILPDGTIKLKIYNKNGELIAEITLKIKDSAG [r14_213_TrROS_Hall] | 3.18 ± 0.32 | 4.32 ± 0.049 | 4.09 ± 0.26
21 | SAGGTIYIFIPGLTAEEILKFIAEEFPGHENVTIFWPKGYYVKITVDNGNIKIDKVQPMRPMPPGDPSAGGS [r8_225_TrROS] | 2.52 ± 0.073 | 3.31 ± 0.026 | 2.99 ± 0.084
